{"source": "patent US20240400698A1", "about": "“ANTI-CHEMOKIN LIKE RECEPTOR 1 ANTIBODIES AND THEIR THERAPEUTIC APPLICATIONS” (OSE IMMUNOTHERAPEUTICS, priority 2018, published 2024)", "molecules": {"B1": {"name": "2G1: chimeric anti-CMKLR1 antibody, murine variable regions (SEQ ID No: 10 and 17), human IgG1 constant regions; VH-CDR3 variant LI (antibody, V domains shown)", "VH": "METDTLLLWVLLLWVPGSTGDEVQLVASGGGLVQPGGSLKLSCAASGFTFSSYGMSWVRQTPDRRLELVATINRYGGSTYYPDSVKGRFTISRDNAKNTLYLQMSSLKSEDTAMYYCPRLIYYGNEGDSWGQGTTLTVSS", "VL": "METDTLLLWVLLLWVPGSTGDQIVLTQSPAIMSASPGEKVTMTCSASSSVSFMHWYQQKSGTSPKRWIYDTTKLTSGVPARFSGSGSGTFYSLTISSMEAEDAATYYCQQWNSKPPLTFGPGTKLELKR", "modifications": "human IgG1 constant regions", "notes": "VH-CDR3 variant LI"}}, "key": {"[1]": {"tested_on": "Rag1 knock-out mice, CD45Rb high CD4 T cell transfer colitis", "experiment": "CD45Rb high T-cell transfer chronic colitis mouse model", "format": "in vivo", "settings": "FIG. 21; 1 mg/kg three times a week for 3 weeks from day 32; control mice start to lose weight", "method": "Weight variation of treated animals was followed up to sixty days. Animals were treated with isotype control hIgG1 (x) or anti-CMKLR1 antibody (=).\nMethod: CD45Rb^high CD4 T cells were isolated from the spleen of naive mice and sorted on an ARIA FACS after a negative selection of the CD4 T cells by magnetic sorting, then injected intraperitoneally at 0.5·10^6 cells in 100 μL of PBS into 6-weeks old female Rag1 knock-out mice. Anti-CMKLR1 antibody (2G1) or an isotype control were administered from day 32 after the CD45Rb^high CD4 T cell transfer for 3 weeks three times a week at 1 mg/kg. The follow-up of weight was evaluated three times a week and the weight variation was determined over the initial weight. * p<0.05, ** p<0.01."}, "[2]": {"tested_on": "4T1 cells", "experiment": "Orthotopic 4T1 mammary carcinoma model, primary tumor and metastasis", "format": "in vivo, mice", "method": "FIG. 8. […] Mice were inoculated with 4T1 cells (0.25 millions) in the mammary gland. […] A. The tumor area was measured 8 days after tumor injection and then every 2 days. B. Tumor lung metastasis was measured by Bioluminescence imaging (BLI) in animals treated with isotype control and anti-CMKLR1 antibody (n=4).\nMice were anesthetized with 3% of isoflurane. Mice were shaved on the abdomen and 4T1 cells (0.25 millions) were injected in the mammary gland with an insulinic syringe (30 Gauges) in 50 μL of PBS. […] In a second study to measure the lung metastasis following mammary carcinoma development, animals were treated with anti-CMKLR1 antibody at 0.8 mg/kg or control antibody (100 μg/injection) three times a week for three weeks."}, "[3]": {"molecular_target": "T1, CMKLR1 receptor (Homo sapiens, UniProt Q99788)", "T1 construct": "host or cells: CHO-K1", "T1 sequence (Q99788 1-373)": "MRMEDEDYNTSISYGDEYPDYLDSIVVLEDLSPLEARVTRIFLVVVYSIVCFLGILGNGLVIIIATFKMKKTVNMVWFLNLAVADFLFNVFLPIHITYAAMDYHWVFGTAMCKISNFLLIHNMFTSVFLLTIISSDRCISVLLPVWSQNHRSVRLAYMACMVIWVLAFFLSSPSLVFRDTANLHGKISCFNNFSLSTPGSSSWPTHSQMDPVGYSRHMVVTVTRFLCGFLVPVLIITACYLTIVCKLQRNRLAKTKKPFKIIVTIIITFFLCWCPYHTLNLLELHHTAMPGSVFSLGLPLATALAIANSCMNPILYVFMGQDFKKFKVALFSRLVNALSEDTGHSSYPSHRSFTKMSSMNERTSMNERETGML", "experiment": "Competition assay of Chemerin-dependent β-arrestin recruitment by CMKLR1 receptor, CHO-K1 CMKLR1 cells", "format": "cell-based", "settings": "FIG. 20B; antibody 1 μM to 1 nM, Chemerin 2 or 6 nM", "method": "The day before the assay, CHO-K1 CMKLR1 cells (Discover'X ref 93-0313E2) were plated in pre-warmed cell reagent then plated in a 96-well plate at 100 μl/well of cells as (Discover'X ref 15-103) and incubated […] at 37° C., in a 5% CO2 humidified incubator. The anti-CMLKR1 antibody was diluted (22× in 7-point series of 3-fold dilutions from 1 μM to 1 nM) and cells were incubated 30 min at 37° C. with the antibody. […] The luminescence was measured after Working Detection Solution addition to the cells with a plate reader with 0.5 s integration."}, "[4]": {"tested_on": "MC38 cells", "experiment": "MC38 colon carcinoma model", "format": "in vivo, mice", "settings": "FIG. 9D, 20 μg/injection i.p. for 3 weeks, vs isotype control", "method": "FIG. 9. […] Two mice models were studied, and animals received isotype control antibody (3G8) (x) or anti-CMKLR1 (2G1) ( ) at 20 μg/injection intraperitoneally for 3 weeks. A-C. Results in the CT26 colon carcinoma model comparing single treatment with p84 (A) and 2G1 (B) with combined therapy with both antibodies (C). D: Results in the MC38 colon carcinoma model.\n8-week old C57bl/6J male mice were anesthetized with 3% of isoflurane. Mice were shaved on the flank and MC38 cells (0.5·10^6 cells/mouse) cell lines were injected subcutaneously with an insulinic syringe (30 Gauges) in 50 μL of PBS. Another model was used, in which 8-week old Balb/c male mice were anesthetized with 3% of isoflurane. Mice were shaved on the flank and CT26 cells (1·10^6 cells/mouse) were injected subcutaneously with an insulinic syringe (30 Gauges) in 50 μL of PBS.\nThe agonistic anti-CMKLR1 antibody (2G1) or an anti-SIRPa antibody (p84-anti-mouse SIRPa from Merck Millipore) (SIRPa is a new checkpoint inhibitor) were injected once a week (20 μg/injection) intraperitoneally for 3 weeks starting at d4 after tumor inoculation alone or combined."}, "[5]": {"tested_on": "Hepa 1.6 cells", "experiment": "Orthotopic hepatocarcinoma (HCC) model, overall survival", "settings": "FIG. 22; Hepa 1.6 HCC model; anti-CMKLR1 0.8 mg/kg, anti-PD1 8 mg/kg; followed sixty days", "protocol": "Effect of an anti-CMKLR1 antibody on an Hepatocarcinoma mice model (HCC model). […] Isotype control antibody was used at 0.8 mg/kg three times a week for 2 weeks. Mice response were considered partial (PR) when mice survive few days to 1 month after stop of treatment or complete (CR) when mice survive over 1 month or cured when they survive three times longer than the time necessary to all control mice dye.\nMethod: Mice were anesthetized with a cocktail of xylazine/ketamine. After a laparotomy, tumoral Hepa 1.6 cells were injected in PBS through the portal vein (2.5·10^6 cells/100 μL) in PBS. The treatment was started 4 days after tumor injection. The anti-CMKLR1 antibody (2G1clone) and the hIgG1 istotype control were injected at 0.8 mg/kg three times per week during 2 weeks. The anti-PD1 monoclonal antibody was injected twice a week during 2 weeks intraperitoneally in PBS (8 mg/kg). Combination anti-CMKLR1 and anti-PD1 antibodies was tested as well (0.8 mg/kg and 8 mg/kg respectively)."}, "[6]": {"tested_on": "mice, peritonitis induced by Zymosan A", "experiment": "Zymosan A peritonitis model (sepsis)", "format": "in vivo", "settings": "preventive injection, vs isotype control", "method": "FIG. 7. […] Preventive injection of anti-CMKLR1 was performed before Zymosan A injection (1 mg per mouse in 1 mL): RvE1 (1 μg per mouse) (•), 2G1 antibody (10 μg per mouse) ( ) or isotype control antibody (x). A. PMN numbered during the first 50 hours after Zymosan A injection. B. Macrophages numbered during the first 50 hours after Zymosan A injection. C. Resolution index.\nCommon peritonitis is induced by intraperitoneal injection of Zymosan A® (1 mg per mouse in 1 mL). Preventive injection of anti-CMKLR1 was performed 5 minutes before Zymosan A injection: RvE1 (1 μg per mouse), 2G1 antibody (10 μg per mouse). Murine peritoneal polymorphonuclear neutrophil (PMN) and macrophages were collected at 2-4-8-16-24 and 48 h after Zymosan A injection and numbered by flow cytometry analysis to determinate the resolution index (Bannenberg et al., 2005)."}, "[7]": {"tested_on": "IL-10KO mice, spontaneous colitis", "experiment": "IL10-KO spontaneous chronic colitis model", "format": "in vivo", "settings": "25 μg/injection i.p., 3 times a week, vs isotype control", "method": "FIG. 4. […] Mice KO for IL10 develop a spontaneous inflammatory colitis. They were treated with an Anti-CMKLR1 antibody (2G1) ( ) or isotype control (hIgG1) (x) intra-peritoneally (25 μg/injection, 3 times a week). A. Animal weight loss during and after treatment. B. Animal score stool.\nIL-10KO mice develop a spontaneous colitis from 20 weeks of age mostly due to the absence of regulatory T cells function through IL-10 secretion in the intestine. IL-10KO mice were followed-up three times a week from 18-week old for their weight loss and stool consistency which are clinical hallmarks of this pathology."}}}
{"molecule": "B1", "values": [{"measurement": "weight variation", "setting": "[1]", "value": "continue to gain weight"}, {"measurement": "tumor growth (tumor area)", "setting": "[2]; 4T1 mammary carcinoma, FIG. 8A, 10 μg/injection at day 4 and day 7, vs isotype control", "value": "did not show any improvement in the tumor growth"}, {"measurement": "lung metastasis by bioluminescence imaging", "setting": "[2]; 4T1 model, FIG. 8B, 0.8 mg/kg three times a week for three weeks, vs control antibody", "value": "reduces the lung metastasis"}, {"measurement": "lymph node metastasis", "setting": "[2]; 4T1 model, data not shown, two animals in the control have metastasis", "value": "no animals treated with the anti-CMKLR1 compound has metastasis"}, {"measurement": "effect on chemerin-dependent activation of the beta-arrestin", "setting": "[3]", "value": "did not significantly modify chemerin-dependent activation of the beta-arrestin"}, {"measurement": "tumor growth", "setting": "[4]", "value": "did show an efficacy in the inhibition of the tumor growth"}, {"measurement": "survival rate", "setting": "[5]", "value": 15, "unit": "%"}, {"measurement": "PMNs number", "setting": "[6]; FIG. 7A", "value": "slightly less"}, {"measurement": "macrophages number", "setting": "[6]; FIG. 7B", "value": "slightly less"}, {"measurement": "resolution index", "setting": "[6]; FIG. 7C", "value": "better resolution index"}, {"measurement": "percentage of weight loss", "setting": "[7]; FIG. 4A", "value": "lost less weight"}, {"measurement": "score stool", "setting": "[7]; FIG. 4B", "value": "better score stool"}]}
